This series can be described thus: soluble on expression in E. coli; label from the status in PepcDB or PDB records.
For “MGSDKIHHHHHHMRVITVAGPPSVGKTSVVVKTATTLAAQGHRLGIVKFDSLSTSDDQVYRRAGLPVVVGLSGNVCPDHFFVSNIDDCVDWGRTHGVDILVAESAGLCNRCSPHVQGVQAICVVDNLSGVHTPRKIGPMLKLADVVVITKGDIVSQAEREVFAYNVRLANPRAQVMQFHGITGQGASDLAARMLCAPVVDALEGRRLRFSMPSAVCPYCIGETAIGVDHQRGNVRKMSFAEPAR”, the “soluble on expression in E. coli” value is “not soluble”.
On to “MSLTQTILVIDDDAAVRGSFQLVLGEIGCVVRVAEDGLQGIAMAREERPDLIFLDLKMPGIDGVETMRRLLAMDPTFNIYIVTAFSQEYLDDLKQAQAEGMTFQLANKPLSSTQIRHIARSVRSLSNVSKDNHRISLTLYVVSVNPEIQKVVDQLSNVLAATYRAGFWVLNVVEVLGMPEKALEKDVFATPMLVREVPEPVLKLLGDLSRMHSVLSAITAENGHGAGTEGHHHHHH”, for which the “soluble on expression in E. coli” value was “soluble”.
For “MGSDKIHHHHHHVLSTANITMQFGPKPLFENISVKFGGGNRYGLIGANGCGKSTFMKILGGDLEPSSGNVMLEPNIRLGKLRQDQFAYEDVRVLDVVMMGHAEMWAAMTERDAIYANPDATDDDYMHAAELEAKFAEYDGYTAEARAGELLLGIGIAIENHNGPMSNVAPGWKLRVLLAQALFSKPDVLLLDEPTNNLDINSIRWLEDVLNQYNSTMIIISHDRHFLNQVCTHMADMDFGTLKVYPGNYDDYMLASTQARERQQNANAKAKERVADLQDFVRRFSANKSKARQATSRLKMIDKIKIEEFKPSSRQNPFIRFEYEKKLHNIAVVAEKISKKYERTIFNDFSISVQPGERIAIIGENGAGKTTLLRSLLGKLELDHGTVKWAENANIGYMPQDTYEEFPDDVTLMEWIDVYRKEGDDEQMVRGTLGRLLFNADDIRKSVKVLSGGEKGRMIWGKLMLGRHNVLLMDEPTNHMDMESIESLQIALDKFEGTLIFVSHDREFVSGLANRIIEVKTDGTLNDFGGNYEDFLLSQGVQ” the value was “not soluble”.
For “MGSDKIHHHHHHMRPAFAGIDFGTSNSTVGVVRNGQPHLVALEGGQVTLPSAVFFNFEDGRICFGRQAIANYTDSVEGRLMRSLKSVLGSSLAHEKTRIKARSIGFMEIIGLFLGHLRKKLEEDGGDLVETVVLGRPVQFVDDDPQADANAQSDLEKAAHAQGFKHIAFQFEPIAAALDYEQRVTREELALIIDMGGGTSDFSVVRVSPERARLPDRKDDILASRGVHIGGTDFDRLLSIAHVMPQLGYLTPTKDGKRNLPASYFIDLATWQRINLVYTAKAMTHLRQIRYEAARADLVDRFIHIVEHRYGHALAALVEKAKIELTDLSSAEVAVRLSDVEFAAEITRDGLDATIAREIERVTATVAETMRDAAVKPSDITAVFLTGGSTAIPLARREILSLVPQASVIDGDMFGSVGLGLALDAQRKFG” the value was “not soluble”.
The same measure for “KKEDIVRIHASSGTSGKPTVVGYTAKDIETWSDLIARSLTMIGLSKGDTIQNSMNYGLFTGGLGFHYGVERMGAMIVPAATGNTARQLEMMIDFGVTAVHCTPSYAFYLAETAEELDLIDKLSLKAAIFGGEPWSENTRKQLEKRLNLKAYDCYGLSEMFGPGVGFECQEQDGLHIW”: “not soluble”; for “MIKLVFRYSPTKTVDGFNELAFGLGDGLPWGRVKKDLQNFKARTEGTIMIMGAKTFQSLPTLLPGRSHIVVCDLARDYPVTKDGDLAHFYITWEQYITYISGGEIQVSSPNAPFETMLDQNSKVSVIGGPALLYAALPYADEVVVSRIVKRHRVNSTVQLDASFLDDISKREMVETHWYKIDEVTTLTESVYK”: “soluble”.
As for “MGSDKIHHHHHHMSRNSPLEISRTLVAALSTQMFRYYEDRIPQDASVLVVSNHRSFMDALILMAALSSPIRFACHHYMGQVPVMREIVTGQLGCFPLEETQNRQQSFFSQSQLLLQSKQMVGVFPEGTAPMVKSTQPNQVGEFQRGFAHLALRADVQDLAILPIAIASLEEVNTNGFPLRLLSVFDPSEPLFNQAGWHPLVIYRRVAVLIGRPYWITPQHQKKYHGKQARTVVAELTEHCHGEISHLLRQGCY”, the “soluble on expression in E. coli” value was “not soluble”.
For “MGSDKIHHHHHHMDVLKEVLSLDQDKFDQLKETSRDKTNETDDPFENYLKDCKFKAPSNKDQSPFAKLKSLQETHSNNEAAINIIIPQLIDYLTEFTNRLSNYTQDLDFIKKKSNELQSLLEYNSTKLAHISPMVNDLMIPPELIDDIIKGKINESWQDNITFIADKEEIYNKYRSNNLDQDNKDAENSAMLAPKDFDKLCQLLDILKNVILERSKRLIISKIKTLRSHNPVPSQRIQNKLLKVQKIFPFIRDNNLSLALELRQAYCYTMKWYYREYFSRYIRSLTILQFQQIDSQFALGNGLSTTSVSGFNNSPSLFFSNYLTTSASNAFYNKLPVTDEKIDKYFQIKKRLNILTQEDNTVMVSQIAENNTTKNYIEIGFKNLNLAILDNCTVEYHFLKDFFAMNGDNFEEINGLLEQIFQPTFDEATTYTQQLIQYNYDIFGVLISIRVANQLQFESERRGIPSMFDSFLNGQLIQLWPRFQQLVDFQCESLRKAAITTNVAKYAGNSSTSNSSPLTSPHELTVQFGKFLSSFLTLAITHKQSIDERSEPLYNSIIRLRNDFETVMTKCSKKTKSPERFLATNYMYLYNNLQQLHLHLNINDSDAQNYNFDSAENVGTKVANDDDNDSSVPLIIRETENHFKTLVEAFTRN” the value was “not soluble”.
For “MAHHHHHHMALYIIGLGLGDERDVSVRGKELIEMSDVVYLESYTSVLFVSKNALEEFYKKNIKEVDRNFAEENCEEILEEAVNKKVSFLVVGDPLCATTHHDIILRAKKKNINVQVIHNASIMSAIGESGMQLYNFGQTVSIPYFEETYKPTSFYDKIKVNLDNNFHTLCLLDIKVKERTIENLMKNKNIYEPPRYMTINEAIEQLLYCEEVHKKNVITDNTRGIAIVRIGSNSQQIVSGNLLTLKTIKYNDPLHSLIICAPTLHDVEREYFDMYMHK” the value was “not soluble”.
As to “MGSDKIHHHHHHMEPFSPLNWFRRSSSQASCRTALSSQPSLEAAVNEVAAALAGGSSADLALVFASTHYASDLQRLLPLLQRRLKATHWLGCAGGGVIGTTAKGNASELEKEPALSITMLQLPGAILKPFYLETQSLPDLDGPAQHWQEWVGADPFNARSMLLLVDPSSRSINDLISGLDYAYPTTTKLGGIAGPHNAPHGSLFFDDRVVMGAVGCSFGGDWNLEVVVAQGCKPIGPVFAIEQVQKNILLELSHENQRDSPMACLQRVLDDLSEEEREMVRHSLFLGIERRDLVLAGTGAPQPQGAFLVRNLIGVDPKNGAVAVAEQIRAGQNVQFQLREAEASRQESELLLGAARERNTSPPLFGLLMACLGRGHGLYGVPNGDVHIARKLMAELPIAGVFCNGEIGPAGGVGATHIHGYTACWGLLRHDPSSSEPAKSV”, the “soluble on expression in E. coli” value is “not soluble”.
Regarding “MNTEKSEKCINVAPSGIRRMKKIHQMEIAQLFEYRRNCLGEKRTAVENVINAKVVAWNLAVVRRRHYFDLHGMTPQGAVDFVAQIVEGRRPGYIKLETGRGNHSKDNIPAIQNRLLQDFGNLSGFQIAIDPSNLGVLILSFQ”, the “soluble on expression in E. coli” value is “not soluble”.
For “SKQPDKQRKSQRRAPLHERHKQVRATLSADLREEYGQRNVRVNAGDTVEVLRGDFAGEEGEVINVDLDKAVIHVEDVTLEKTDGEEVPRPLDTSNVRVTDLDLEDEKREARLESEDDSA” the value was “soluble”.
On to “MNRVYVGTVSAVTDIGVFVNLNKRLRGLIHRRNLGNNRFSEDEEILVQVSGIGLSGEIDLKPVKMDGYKVVEISKEVGRVEIAELENLEHHHHHH”, for which the “soluble on expression in E. coli” value is recorded as “not soluble”.
For “MITDEHIELFLAQAHRYGDAKLMLCSSGNLSWRIGEEALISGTGSWVPTLAKEKVSICNIASGTPTNGVKPSMESTFHLGVLRERPDVNVVLHFQSEYATAISCMKNKPTNFNVTAEIPCHVGSEIPVIPYYRPGSPELAKAVVEAMLKHNSVLLTNHGQVVCGKDFDQVYERATFFEMACRIIVQSGGDYSVLTPEEIEDLEIYVLGKKTK” the value was “soluble”.
The same measure for “MEIFLSDPISAECPCGPDLEYDPEYLLLFTRAAPREEAQYGDFVSTPENINWAELERDAHRLLMRSKDIRILVVLLRCRIQQAGARGLSEALTLLETLCSTYPDAIHPQLLATEDITAEDAAVARSNALAALLDHEGVMADIRGITLSNNAAMRLQVRDVERSLSALRPADALAPESVRQQLADLEARGTLPLDAFRQAAETTERLQRHARETLNDQAPDFSRLTQLLALLPGAVQSTTPEILPQPQAEQPENATIVHTEQMQAEQIALPVHIAEEISPMTGAEPRQIRDRNDALERLRVIRRWFEHSEPSSPTIPLLRQAERLVGKRVSEVINEIPVELLEKWDALE”: “not soluble”.

For the origin of these results see the DeepSol protein solubility set.
